According to US20240293512A1 (HANMI PHARM, published 2024):
Bridge positions count the residues as written; N and C are the ends. Square brackets hold non-standard residues; d marks the D form. Ends that are not written are not given here. * marks the point of attachment. Acetyl(2-(4-imidazolyl)) = O=C(Cc1c[nH]cn1)*; Aib = CC(C)(N)C(=O)O

T1: human GIP receptor (human, UniProt P48546 22-466)
T1 sequence (looked up): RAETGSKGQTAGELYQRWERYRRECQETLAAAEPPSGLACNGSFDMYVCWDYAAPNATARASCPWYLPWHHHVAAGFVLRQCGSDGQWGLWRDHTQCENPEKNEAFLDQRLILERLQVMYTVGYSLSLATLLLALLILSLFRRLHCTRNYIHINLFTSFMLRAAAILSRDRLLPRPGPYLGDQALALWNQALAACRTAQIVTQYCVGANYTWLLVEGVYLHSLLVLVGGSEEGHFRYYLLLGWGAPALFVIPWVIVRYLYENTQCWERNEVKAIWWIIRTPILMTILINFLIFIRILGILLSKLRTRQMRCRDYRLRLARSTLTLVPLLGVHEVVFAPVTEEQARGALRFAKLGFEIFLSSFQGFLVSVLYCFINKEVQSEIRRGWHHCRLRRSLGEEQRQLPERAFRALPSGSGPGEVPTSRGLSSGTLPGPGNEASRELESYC


Columns and labels:
Assay in all cases: cell-based or functional assay
[1] = target: human GLP-1 receptor (human, UniProt P43220 24-463)
[2] = target: human GCG receptor (human, UniProt P47871 26-477)
[3] = target: T1, human GIP receptor

Sequence of human GCG receptor (P47871 26-477): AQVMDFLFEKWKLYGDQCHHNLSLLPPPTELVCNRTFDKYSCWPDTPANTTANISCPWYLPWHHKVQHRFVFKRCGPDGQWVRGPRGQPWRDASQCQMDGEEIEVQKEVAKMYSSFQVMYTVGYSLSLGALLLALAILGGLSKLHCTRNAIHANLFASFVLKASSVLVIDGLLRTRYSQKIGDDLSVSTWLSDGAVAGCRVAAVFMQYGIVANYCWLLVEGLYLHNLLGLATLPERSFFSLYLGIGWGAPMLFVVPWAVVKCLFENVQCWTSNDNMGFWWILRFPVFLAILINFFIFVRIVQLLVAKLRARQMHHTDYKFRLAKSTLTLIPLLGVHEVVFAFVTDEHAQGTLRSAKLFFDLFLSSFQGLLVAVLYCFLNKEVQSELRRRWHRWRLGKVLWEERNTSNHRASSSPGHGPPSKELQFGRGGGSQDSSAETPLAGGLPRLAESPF

Binder	In vitro activity compared with native peptide (%) vs GLP-1 (cAMP EC50) [1] [%]	In vitro activity compared with native peptide (%) vs Glucagon (cAMP EC50) [2] [%]	In vitro activity compared with native peptide (%) vs GIP (cAMP EC50) [3] [%]
[Acetyl(2-(4-imidazolyl))][Aib]QGTFTSDYSKYLDEKRQKEFVQWLLNTC (bridge 16-20) [triple agonist of SEQ ID NO: 81]	7.8	0.3	< 0.1
Y[Aib]QGTFTSDYSKYLDEKRAKEFVQWLLCHHPSSGQPPPS (bridge 16-20) [triple agonist of SEQ ID NO: 95]	2.1	0.4	< 0.1
[Acetyl(2-(4-imidazolyl))][Aib]EGTFTSDYSIAMDEIHQKDFVNWLLAQKC (bridge 16-20) [triple agonist of SEQ ID NO: 90]	7.4	< 0.1	< 0.1
[Acetyl(2-(4-imidazolyl))][Aib]QGTFTSDYSKYLDEKRQKEFVQWLLDTC (bridge 16-20) [triple agonist of SEQ ID NO: 82]	9.5	1.1	< 0.1
H[Aib]EGTFTSDYSIAMDEIHQKDFVDWLLAEKC (bridge 16-20) [triple agonist of SEQ ID NO: 80]	8.1	0	0.1
[Acetyl(2-(4-imidazolyl))][Aib]QGTFTSDYSIAMDEIHQKDFVNWLLNTKC (bridge 16-20) [triple agonist of SEQ ID NO: 94]	0.5	< 0.1	< 0.1
Y[Aib]QGTFTSDYSKALDEKAAKEFVNWLLDQHPSSGQPPPSC (bridge 16-20) [triple agonist of SEQ ID NO: 101]	23.2	13.9	40.1
H[Aib]QGTFTSDVSKYLDGQAAQEFVAWLLAGGGPSSGAPPPSC [triple agonist of SEQ ID NO: 10]	46	< 0.1	< 0.1
[Acetyl(2-(4-imidazolyl))][Aib]EGTFTSDYSIAMDEIHQKDFVNWLLAQC (bridge 16-20) [triple agonist of SEQ ID NO: 83]	47.3	1.3	0.4
Y[Aib]QGTFTSDYSKALDEKAAKDFVNWLLDQHPSSGQPPPSC (bridge 16-20) [triple agonist of SEQ ID NO: 102]	23.3	29.5	58
[Acetyl(2-(4-imidazolyl))][Aib]EGTFTSDYSIAMDEIHQKDFVDWLLAEKC (bridge 16-20) [triple agonist of SEQ ID NO: 91]	31.9	16.8	0.3
[Acetyl(2-(4-imidazolyl))][Aib]QGTFTSDYSIAMDEIHQKDFVNWLLNTC (bridge 16-20) [triple agonist of SEQ ID NO: 87]	0.9	< 0.1	< 0.1
Y[Aib]QGTFTSDYSKALDEKAAKEFVQWLLDQHPSSGQPPPSC (bridge 16-20) [triple agonist of SEQ ID NO: 100]	42.2	12.7	118
[Acetyl(2-(4-imidazolyl))][Aib]QGTFTSDYSKYLDEKRQKEFVNWLLAQKC (bridge 16-20) [triple agonist of SEQ ID NO: 93]	5.7	0.3	0.7
[Acetyl(2-(4-imidazolyl))][Aib]QGTFTSDYSKYLDEKRQKEFVQWLLDTKC (bridge 16-20) [triple agonist of SEQ ID NO: 89]	7.1	0.7	< 0.1
[Acetyl(2-(4-imidazolyl))][Aib]QGTFTSDYSKYLDEKRQKEFVNWLLAQC (bridge 16-20) [triple agonist of SEQ ID NO: 86]	28.4	0.4	0.2
[Acetyl(2-(4-imidazolyl))][Aib]QGTFTSDYSIAMDEIHQKDFVNWLLAQKC (bridge 16-20) [triple agonist of SEQ ID NO: 92]	0.8	< 0.1	0.4
H[Aib]EGTFTSDYSIAMDEIHQKDFVNWLLAQKC (bridge 16-20) [triple agonist of SEQ ID NO: 79]	41.5	4.9	1.4
[Acetyl(2-(4-imidazolyl))][Aib]QGTFTSDYSKYLDEKRQKEFVQWLLNTKC (bridge 16-20) [triple agonist of SEQ ID NO: 88]	9.6	0.3	< 0.1
Y[Aib]QGTFTSDYSKALDEKAAKEFVNWLLDHHPSSGQPPPSC (bridge 16-20) [triple agonist of SEQ ID NO: 98]	28.1	8.2	47.1
Y[Aib]QGTFTSDYSKALDEKAAKDFVNWLLDHHPSSGQPPPSC (bridge 16-20) [triple agonist of SEQ ID NO: 99]	20.9	14.9	57.7
[Acetyl(2-(4-imidazolyl))][Aib]EGTFTSDYSIAMDEIHQKDFVDWLLAEC (bridge 16-20) [triple agonist of SEQ ID NO: 84]	4.2	< 0.1	< 0.1
Y[Aib]QGTFTSDYSKYLDEKRAKEFVQWLLDHCPSSGQPPPS (bridge 16-20) [triple agonist of SEQ ID NO: 96]	34.4	195	5.2
H[Aib]QGTFTSDYSKYLDEKRQKEFVQWLLDTKC (bridge 16-20) [triple agonist of SEQ ID NO: 78]	51	14	0.12
[Acetyl(2-(4-imidazolyl))][Aib]QGTFTSDYSIAMDEIHQKDFVNWLLAQC (bridge 16-20) [triple agonist of SEQ ID NO: 85]	4.3	< 0.1	0.3
Y[Aib]QGTFTSDYSKYLDEKRAKEFVQWLLDCHPSSGQPPPS (bridge 16-20) [triple agonist of SEQ ID NO: 97]	10.5	62.8	2.6
H[Aib]QGTFTSDVSKYLDGQAAQEFVAWLLAGC [triple agonist of SEQ ID NO: 9]	32.1	0.13	< 0.1
